{"source": "paper doi:10.1101/286310", "about": "“Dynamics of human protein kinases linked to drug selectivity” (bioRxiv, 2018)", "proteins": {"B1": {"name": "dephosphorylated Aurora A (122-403) (domain or fragment, human, UniProt O14965 122-403, looked up)", "chain": "ESKKRQWALEDFEIGRPLGKGKFGNVYLAREKQSKFILALKVLFKAQLEKAGVEHQLRREVEIQSHLRHPNILRLYGYFHDATRVYLILEYAPLGTVYRELQKLSKFDEQRTATYITELANALSYCHSKRVIHRDIKPENLLLGSAGELKIADFGWSVHAPSSRRTTLCGTLDYLPPEMIEGRMHDEKVDLWSLGVLCYEFLVGKPPFEANTYQETYKRISRVEFTFPDFVTEGARDLISRLLKHNPSQRPMLREVLEHPWITANSSKPSNCQNKESASKQS", "notes": "Aurora A kinase (Ser/Thr kinase), residues 122-403, dephosphorylated; also called AurA; deP Aurora A^122-403; source: expressed and purified as described before (Zorba et al., 2014); dephosphorylated state confirmed by mass spectrometry"}}, "biological_target": "the molecule itself", "test": "crystal structure; co-crystallised: 240 uM deP Aurora A 122-403 + 1.0 mM AT9283 + 250 uM Mb; sitting drop, 18 °C; 0.1 M Bis-Tris pH 5.5, 0.2 M magnesium chloride, 19% (w/v) PEG-3350"}
{"protein": "B1", "values": [{"measurement": "binding result", "result": "binds"}]}
